Five molecules from patent US20230018405A1 can be followed below.

Ends that are not written are not given here. EGFP = GFP fused N-terminally (GFP-linker-3.2iPA), EGFP per filing

One test addresses rat Cav3.2 (rat) (UniProt Q9EQ60). Nature of the test: cell-based or functional assay.
Test [1] deals with human wide-type Cav3.2 (human) (UniProt O95180). Nature of the test: cell-based or functional assay.
UniProt O95180, sequence (O95180 whole entry): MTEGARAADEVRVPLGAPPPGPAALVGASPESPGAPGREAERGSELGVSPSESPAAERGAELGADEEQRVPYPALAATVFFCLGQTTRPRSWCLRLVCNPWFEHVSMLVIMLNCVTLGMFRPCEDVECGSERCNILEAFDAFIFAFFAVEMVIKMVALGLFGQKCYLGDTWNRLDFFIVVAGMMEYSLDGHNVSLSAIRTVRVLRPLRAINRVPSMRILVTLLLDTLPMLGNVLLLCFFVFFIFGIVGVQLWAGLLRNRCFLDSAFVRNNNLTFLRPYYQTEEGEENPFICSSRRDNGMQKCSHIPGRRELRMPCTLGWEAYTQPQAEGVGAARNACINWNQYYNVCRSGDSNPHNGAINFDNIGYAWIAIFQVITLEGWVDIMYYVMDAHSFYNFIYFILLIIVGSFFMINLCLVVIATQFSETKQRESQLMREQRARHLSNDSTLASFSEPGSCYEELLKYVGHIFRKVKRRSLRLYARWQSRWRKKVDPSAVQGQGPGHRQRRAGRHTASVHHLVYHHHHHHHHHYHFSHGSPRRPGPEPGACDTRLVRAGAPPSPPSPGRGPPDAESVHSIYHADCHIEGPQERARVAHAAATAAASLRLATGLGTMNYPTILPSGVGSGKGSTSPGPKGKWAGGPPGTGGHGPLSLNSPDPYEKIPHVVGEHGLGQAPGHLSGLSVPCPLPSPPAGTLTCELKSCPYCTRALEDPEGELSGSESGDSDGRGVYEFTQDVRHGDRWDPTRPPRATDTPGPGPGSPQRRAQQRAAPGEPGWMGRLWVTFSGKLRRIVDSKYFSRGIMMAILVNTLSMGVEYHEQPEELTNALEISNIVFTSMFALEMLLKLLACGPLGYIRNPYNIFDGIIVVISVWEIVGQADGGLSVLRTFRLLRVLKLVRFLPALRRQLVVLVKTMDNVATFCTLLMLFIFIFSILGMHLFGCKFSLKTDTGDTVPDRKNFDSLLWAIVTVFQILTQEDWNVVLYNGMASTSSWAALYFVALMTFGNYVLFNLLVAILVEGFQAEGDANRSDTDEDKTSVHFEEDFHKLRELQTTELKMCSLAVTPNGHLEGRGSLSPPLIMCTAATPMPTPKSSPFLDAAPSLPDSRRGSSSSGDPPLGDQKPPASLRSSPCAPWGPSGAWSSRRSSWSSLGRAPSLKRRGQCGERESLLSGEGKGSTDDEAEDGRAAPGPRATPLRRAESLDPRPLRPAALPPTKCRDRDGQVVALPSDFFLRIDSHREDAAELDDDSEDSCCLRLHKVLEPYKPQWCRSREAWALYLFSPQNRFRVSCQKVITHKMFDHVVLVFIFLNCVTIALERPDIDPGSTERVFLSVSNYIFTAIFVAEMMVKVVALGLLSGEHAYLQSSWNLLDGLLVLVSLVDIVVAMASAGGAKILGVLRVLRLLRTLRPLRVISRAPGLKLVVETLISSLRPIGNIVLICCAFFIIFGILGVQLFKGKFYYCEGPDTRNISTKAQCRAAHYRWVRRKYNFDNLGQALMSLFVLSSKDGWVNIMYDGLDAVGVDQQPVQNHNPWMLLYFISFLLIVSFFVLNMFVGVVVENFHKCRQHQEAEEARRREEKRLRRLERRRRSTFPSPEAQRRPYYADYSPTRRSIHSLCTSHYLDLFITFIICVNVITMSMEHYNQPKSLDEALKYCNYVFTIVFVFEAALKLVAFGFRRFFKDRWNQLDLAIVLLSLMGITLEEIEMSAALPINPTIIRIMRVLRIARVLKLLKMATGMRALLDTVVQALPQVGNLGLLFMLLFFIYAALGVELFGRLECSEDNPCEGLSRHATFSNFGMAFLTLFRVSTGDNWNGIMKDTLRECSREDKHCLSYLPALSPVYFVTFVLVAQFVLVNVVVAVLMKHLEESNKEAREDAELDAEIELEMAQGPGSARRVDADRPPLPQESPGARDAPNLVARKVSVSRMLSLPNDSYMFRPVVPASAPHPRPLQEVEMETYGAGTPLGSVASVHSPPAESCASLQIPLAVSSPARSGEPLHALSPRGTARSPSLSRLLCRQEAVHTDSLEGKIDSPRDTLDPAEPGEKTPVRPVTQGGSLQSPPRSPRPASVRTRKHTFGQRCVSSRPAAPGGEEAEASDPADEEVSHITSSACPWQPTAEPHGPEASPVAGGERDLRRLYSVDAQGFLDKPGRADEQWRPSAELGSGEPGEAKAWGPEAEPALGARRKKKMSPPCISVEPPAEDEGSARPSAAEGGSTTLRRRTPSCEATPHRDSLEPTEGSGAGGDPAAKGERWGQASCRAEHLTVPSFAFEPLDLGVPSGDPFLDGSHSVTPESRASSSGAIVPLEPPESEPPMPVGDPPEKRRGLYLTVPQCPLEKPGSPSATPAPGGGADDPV

UniProt Q9EQ60, sequence (Q9EQ60 whole entry): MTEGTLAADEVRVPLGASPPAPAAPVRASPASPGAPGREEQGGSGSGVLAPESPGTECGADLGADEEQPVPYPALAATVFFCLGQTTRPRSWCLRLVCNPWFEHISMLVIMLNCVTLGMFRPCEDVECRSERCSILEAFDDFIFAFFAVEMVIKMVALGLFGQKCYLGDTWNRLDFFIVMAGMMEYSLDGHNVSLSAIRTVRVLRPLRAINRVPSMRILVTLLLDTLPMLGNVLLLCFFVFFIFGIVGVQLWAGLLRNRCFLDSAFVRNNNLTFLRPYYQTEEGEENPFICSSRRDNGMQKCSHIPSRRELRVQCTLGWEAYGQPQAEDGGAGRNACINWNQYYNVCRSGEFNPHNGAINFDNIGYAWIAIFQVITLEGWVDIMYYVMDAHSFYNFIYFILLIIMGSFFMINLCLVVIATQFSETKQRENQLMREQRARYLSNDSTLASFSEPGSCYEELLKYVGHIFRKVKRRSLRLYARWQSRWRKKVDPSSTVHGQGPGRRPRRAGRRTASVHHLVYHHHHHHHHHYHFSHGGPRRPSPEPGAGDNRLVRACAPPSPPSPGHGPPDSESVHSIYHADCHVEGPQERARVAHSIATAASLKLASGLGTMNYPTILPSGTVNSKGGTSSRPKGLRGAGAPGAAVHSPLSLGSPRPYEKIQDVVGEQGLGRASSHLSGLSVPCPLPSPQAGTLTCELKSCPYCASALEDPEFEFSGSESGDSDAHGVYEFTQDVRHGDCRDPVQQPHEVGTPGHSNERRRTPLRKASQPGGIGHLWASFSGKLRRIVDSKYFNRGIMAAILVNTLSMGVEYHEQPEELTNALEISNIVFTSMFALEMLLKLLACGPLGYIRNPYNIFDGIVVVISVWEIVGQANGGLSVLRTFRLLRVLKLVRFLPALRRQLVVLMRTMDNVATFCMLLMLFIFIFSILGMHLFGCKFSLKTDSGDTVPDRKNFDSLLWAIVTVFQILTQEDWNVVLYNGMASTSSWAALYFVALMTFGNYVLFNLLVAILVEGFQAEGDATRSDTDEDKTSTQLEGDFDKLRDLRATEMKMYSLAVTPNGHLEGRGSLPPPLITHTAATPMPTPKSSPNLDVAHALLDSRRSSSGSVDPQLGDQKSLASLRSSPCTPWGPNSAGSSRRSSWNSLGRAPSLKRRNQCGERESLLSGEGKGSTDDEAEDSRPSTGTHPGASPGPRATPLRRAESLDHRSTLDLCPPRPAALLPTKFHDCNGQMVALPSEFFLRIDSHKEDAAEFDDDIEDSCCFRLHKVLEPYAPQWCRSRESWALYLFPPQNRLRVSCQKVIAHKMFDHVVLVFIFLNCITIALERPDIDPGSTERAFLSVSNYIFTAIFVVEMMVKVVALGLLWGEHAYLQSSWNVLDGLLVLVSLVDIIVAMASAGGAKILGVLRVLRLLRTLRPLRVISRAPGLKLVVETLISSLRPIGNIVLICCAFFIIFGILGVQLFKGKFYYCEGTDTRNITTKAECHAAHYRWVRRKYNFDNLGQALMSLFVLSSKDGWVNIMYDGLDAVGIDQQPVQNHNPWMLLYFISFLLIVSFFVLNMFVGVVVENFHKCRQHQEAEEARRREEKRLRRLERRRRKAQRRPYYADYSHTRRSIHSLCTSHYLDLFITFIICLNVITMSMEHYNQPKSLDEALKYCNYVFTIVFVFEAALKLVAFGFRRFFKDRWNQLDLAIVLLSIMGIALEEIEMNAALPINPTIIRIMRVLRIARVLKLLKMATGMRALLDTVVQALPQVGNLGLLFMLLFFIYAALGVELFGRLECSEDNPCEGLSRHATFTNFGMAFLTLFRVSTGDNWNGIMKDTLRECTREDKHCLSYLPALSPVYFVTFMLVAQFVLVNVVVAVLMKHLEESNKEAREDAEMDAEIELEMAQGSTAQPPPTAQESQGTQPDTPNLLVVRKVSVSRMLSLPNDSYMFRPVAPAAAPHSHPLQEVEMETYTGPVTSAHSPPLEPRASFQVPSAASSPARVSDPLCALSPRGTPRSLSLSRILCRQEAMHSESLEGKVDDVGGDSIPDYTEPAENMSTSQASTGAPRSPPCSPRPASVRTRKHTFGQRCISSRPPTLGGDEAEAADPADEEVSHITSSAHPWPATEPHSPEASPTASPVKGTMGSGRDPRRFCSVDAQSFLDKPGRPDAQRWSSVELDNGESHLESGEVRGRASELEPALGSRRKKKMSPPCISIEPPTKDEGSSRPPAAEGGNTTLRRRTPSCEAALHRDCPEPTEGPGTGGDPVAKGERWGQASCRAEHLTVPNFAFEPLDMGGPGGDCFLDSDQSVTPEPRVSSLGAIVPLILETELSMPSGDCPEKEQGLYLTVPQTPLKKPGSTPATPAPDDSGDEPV

{EGFP}-GLRSRAQASNSAVDGTAGPGSRRREEKRLRRLERRRRKAQRRP (designed binder, not shown: large carriers) [GFP3.2iPA2] yielded an inhibition of peak LVA ICa (pA/pF), dissociated rat DRG neurons after AAV6 injection in the test with rat Cav3.2 (rat) of 60%. In addition, in test [1], the Activation curves (G/Gmax), V½ is -54.6 mV; the Inactivation curves (I/Imax), V½ was -68.8 mV; the Peak T-type calcium currents, HEK3.2 cells (second institution) came to 11.8 pA/pF; the reduction of peak Cav3.2 current density (ICa3.2), whole-cell voltage-clamp, HEK3.2 cells is 60%.

As to GLRSRAQASNSAVDGTAGPGSPAAPVRASPASPGAPGREEQ (designed binder, not shown: large carriers) [GFP3.2NP], in test [1], the Activation curves (G/Gmax), V½ is -54.1 mV; the Inactivation curves (I/Imax), V½ is -64.9 mV; the Peak T-type calcium currents, HEK3.2 cells (second institution) was 41.1 pA/pF.

For {EGFP}-GLRSRAQASNSAVDGTAGPGSRGRASELEPALGSRRKKKMSPP (designed binder, not shown: large carriers) [GFP3.2iPA4], the reduction of peak Cav3.2 current density (ICa3.2), whole-cell voltage-clamp, HEK3.2 cells in test [1] turned out to be 40%.

Take {EGFP}-GLRSRAQASNSAVDGTAGPGSKRRSLRLYARWQSRWRKK (designed binder, not shown: large carriers) [GFP3.2iPA3]: the enhancement of peak LVA ICa, dissociated rat DRG neurons after AAV6 injection with rat Cav3.2 (rat) stood at 30%.

{EGFP}-GLRSRAQASNSAVDGTAGPGSRRSSWNSLGRAPSLKRR (designed binder, not shown: large carriers) [GFP3.2iPA1] had an inhibition of peak LVA ICa (pA/pF), dissociated rat DRG neurons after AAV6 injection in the test with rat Cav3.2 (rat) of 70%. In addition, in test [1], the Activation curves (G/Gmax), V½ is -56.1 mV; the Inactivation curves (I/Imax), V½ was -69.8 mV; the Peak T-type calcium currents, HEK3.2 cells (second institution) was found to be 20.2 pA/pF; the reduction of peak Cav3.2 current density (ICa3.2), whole-cell voltage-clamp, HEK3.2 cells was determined as 70%.
